Test results as given in PMC11142708.

Biological target: microtubule
Test: optical trap binding-time assay; kinesin held by its C-terminal His tag on a polystyrene bead (0.56 um, streptavidin with biotinylated penta-His antibody), at most one motor per bead, trapped 0, 20, 40 or 60 nm from a surface-attached microtubule; binding time = time from unbinding to the next detectable bead displacement (>15 nm); room temperature; motility buffer (80 mM Pipes pH 6.9, 50 mM CH3COOK, 4 mM MgSO4, 1 mM DTT, 1 mM EGTA, 10 uM taxol, 1 mg/mL casein) with 2 mM ATP and an oxygen-scavenging system; the rates of Table 1 are fits of Brownian dynamics models to the mean binding times of all three motor lengths together

## DK-406-His (Drosophila Kinesin aa 1-406; His tag at c-term) (from UniProt P17210 1-406) (domain or fragment)
  binding time (plateau at close distances): 1 s
  koff^ADP,fast (rate of the weak-to-strong binding transition on the microtubule; diffusion with ADP state model): 2.12 s⁻¹
  koff^MT (unbinding from the weakly bound state, at zero force; diffusion with ADP state model): 0.2 s⁻¹
  kon^MT (microscopic first-order binding rate when the head is within 5 nm of the microtubule; diffusion with ADP state model): 70.7 s⁻¹
  kon^MT (microscopic first-order binding rate; simple diffusion model): 80.6 s⁻¹

## DK-560-His (Kinesin-1, aa 1-560; His tag at c-term) (from UniProt P17210 1-560) (domain or fragment)
  binding time (plateau at close distances): 1 s
  koff^ADP,fast (rate of the weak-to-strong binding transition on the microtubule; diffusion with ADP state model): 2.12 s⁻¹
  koff^MT (unbinding from the weakly bound state, at zero force; diffusion with ADP state model): 0.2 s⁻¹
  kon^MT (microscopic first-order binding rate when the head is within 5 nm of the microtubule; diffusion with ADP state model): 70.7 s⁻¹
  kon^MT (microscopic first-order binding rate; simple diffusion model): 80.6 s⁻¹

## DK-746-His (Drosophila Kinesin aa 1-746; His tag at c-term) (from UniProt P17210 1-746) (domain or fragment)
  binding time (plateau at close distances): 1 s
  koff^ADP,fast (rate of the weak-to-strong binding transition on the microtubule; diffusion with ADP state model): 2.12 s⁻¹
  koff^MT (unbinding from the weakly bound state, at zero force; diffusion with ADP state model): 0.2 s⁻¹
  kon^MT (microscopic first-order binding rate when the head is within 5 nm of the microtubule; diffusion with ADP state model): 70.7 s⁻¹
  kon^MT (microscopic first-order binding rate; simple diffusion model): 80.6 s⁻¹
